Here are results for 1 protein from publication PMC11180644, “Discovery, characterization and mechanism of a Microbacterium esterase for key d-biotin chiral intermediate synthesis” (Bioresources and Bioprocessing, 2024).

Substrate in the series: COC(=O)[C@@H]1[C@H](C(=O)OC)N(Cc2ccccc2)C(=O)N1Cc1ccccc1
Description: HPLC of released monomethyl ester; Michaelis-Menten fit (GraphPad Prism). The format is biochemical, Microbacterium aurantiacum. The note with it: 0.2 mol/L PBS pH 8.0, 30 °C, 10 min, DMSO as substrate solvent, 0.1-12 mmol/L diester. An excerpt: HPLC of released monomethyl ester; Michaelis-Menten fit (GraphPad Prism) on […]01 | the Km value

One may read the Km as the concentration of substrate that gives half-maximal velocity. What is called kcat is the maximal rate divided by the concentration of active sites.

B1: EstSIT01 (Microbacterium aurantiacum) (protein)
chain: MTLFDGITSRIVDTDRLTVNILERAADDPQTPPDRTVVFVHGNVSSALFWQEIMQDLPSDLRAIAVDLRGFGGSEHAPVDATRGVRDFSDDLHATLEALDIPVAHLVGWSMGGGVVMQYALDHPVLSLTLQSPVSPYGFGGTRRDGSRLTDDDAGCGGGGANPDFIQRLIDHDTSDDAQTSPRSVFRAGYVASDYTTDHEDVWVESMLTTSTADGNYPGDAVPSDNWPGFAAGRHGVLNTMAPQYFDVSGIVDLAEKPPILWIHGTADAIVSDASFYDLNYLGQLGIVPGWPGEDVAPAQEMVSQTRDVLGRYAAGGGTVTEVAVEGAGHSAHLERPAVFRHALLEIIGYVGAAADPAPPTEAIIIRSAD
notes: C-terminal 6xHis tag, pET21a, E. coli BL21(DE3), Ni-NTA purified; catalytic triad Ser110-His330-Asp268
Consider B1, for which the Km was 147 µM and the turnover number (kcat) is 5.808 s⁻¹.
